Test results reported in US6699683B1, “Active site of human gamma glutamy hydrolase” (Health Research Incorporated, priority 1996, dated 2004).
Numbering of substitutions follows the chain as printed. Names and notes keep the numbering of the source. Marks after values point to notes of the source that are not given here.

Tests used:
[1] = test system: wildtype, C19A, C124A and C290A hGH proteins; details: 0.5 mM iodoacetate for 60 minutes
Method: hGH activity in chromatography fractions was measured with 4-NH2-10-CH3PteGlu5 (Schirk Labs, Jona, Switzerland) as previously described (Rhee et al. 1998). The specific activities and reaction kinetics of hGH were determined using varying concentrations of 4-NH2-10-CH3PteGlu2 as substrate (Schirk Labs). Km and Vmax were determined by the method of Hanes (Price and Stevens 1989) with the best fit line calculated using Excel (Microsoft).

[2] = molecular target: T1, human gamma glutamyl hydrolase (hGH) (Homo sapiens, UniProt Q92820, C134A); assay: hGH activity in chromatography fractions measured with 4-NH2-10-CH3PteGlu5; format: biochemical; details: substrate 4-NH2-10-CH3PteGlu5
T1 construct: A cDNA encoding the 294 amino acid mature form of hGH protein with an N-terminal methionine preceding the first arginine residue; added N-terminal methionine (start codon) (N); made in house; host or cells: E. coli BL21(DE3)pLysS, pET-24a (pET-hGH)
T1 sequence (Q92820 25-318 C134A): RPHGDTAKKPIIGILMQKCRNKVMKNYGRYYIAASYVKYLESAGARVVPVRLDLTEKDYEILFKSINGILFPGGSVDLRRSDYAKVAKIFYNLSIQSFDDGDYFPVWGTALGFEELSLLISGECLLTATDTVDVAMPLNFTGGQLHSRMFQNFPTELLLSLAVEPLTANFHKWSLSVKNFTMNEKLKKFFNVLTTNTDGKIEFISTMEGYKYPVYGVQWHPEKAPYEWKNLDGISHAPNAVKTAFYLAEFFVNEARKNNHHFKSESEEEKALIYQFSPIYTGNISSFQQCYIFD
Method: Mutant plasmids were used to transform E. colistrain BL21(DE3)pLysS to kanamycin resistance. Cultures (20 ml) were grown for 16 hours at 37° C., 225 rpm in tryptone-phosphate broth (Moore et al. 1993), containing 30 μg/ml kanamycin and 34 μg/ml chloramphenicol. An aliquot (6 ml) of this culture was used to inoculate 500 ml of the same medium. Cultures were incubated at 27° C., 225 rpm until the OD600nm was 0.5-0.6. Isopropyl β-D-thiogalactoside (IPTG) was added to a final concentration of 1 mM and cultures were incubated for a further 3 hours. Cells were harvested by centrifugation and stored at −80° C. Cells from 1 liter of broth were resuspended in 50 ml of 50 mM Tris/HCl pH 7.5 buffer containing 500 mM NaCl and Complete protease inhibitor cocktail (Boehringer Mannheim, Indianapolis, Ind.). The mixture was sonicated and clarified by centrifugation at 20,000 g for 30 minutes at 4° C. A 20-60% ammonium sulfate precipitate was resuspended in 50 mM sodium acetate, pH 5.8, 1 mM octyl-β-D-glucoside (OBG) and 5% glycerol (buffer A). […]

[3] = test system: human gamma glutamyl hydrolase (hGH); assay: hGH activity assay with 4-NH2-10-CH3PteGlu2 as substrate (Km, Vmax, specific activity) of E. coli-expressed purified proteins; format: biochemical; details: for Specific activity (nmol 4-NH2-10-CH3PteGlu2 hydrolyzed/min/mg protein): 200 μM 4-NH2-10-CH3PteGlu2 for 5 minutes; for Specific activity (nmol 4-NH2-10-CH3PteGlu2 hydrolyzed/min/mg protein) / Km / Vmax (nmol 4-NH2-10-CH3PteGlu2 hydrolyzed/min/μg protein): mean ± SD of 3 experiments; for hGH activity (in words): purified E. coli-expressed proteins; for Km: substrate 4-NH2-10-CH3PteGlu2, variable concentrations; for Vmax (nmol 4-NH2-10-CH3PteGlu2 hydrolyzed/min/μg protein): variable 4-NH2-10-CH3PteGlu2 concentrations
Method: (§1) Mutant plasmids were used to transform E. colistrain BL21(DE3)pLysS to kanamycin resistance. Cultures (20 ml) were grown for 16 hours at 37° C., 225 rpm in tryptone-phosphate broth (Moore et al. 1993), containing 30 μg/ml kanamycin and 34 μg/ml chloramphenicol. An aliquot (6 ml) of this culture was used to inoculate 500 ml of the same medium. Cultures were incubated at 27° C., 225 rpm until the OD600nm was 0.5-0.6. Isopropyl β-D-thiogalactoside (IPTG) was added to a final concentration of 1 mM and cultures were incubated for a further 3 hours. Cells were harvested by centrifugation and stored at −80° C. Cells from 1 liter of broth were resuspended in 50 ml of 50 mM Tris/HCl pH 7.5 buffer containing 500 mM NaCl and Complete protease inhibitor cocktail (Boehringer Mannheim, Indianapolis, Ind.). The mixture was sonicated and clarified by centrifugation at 20,000 g for 30 minutes at 4° C. A 20-60% ammonium sulfate precipitate was resuspended in 50 mM sodium acetate, pH 5.8, 1 mM octyl-β-D-glucoside (OBG) and 5% glycerol (buffer A). After dialysis at 4° C. against buffer A and clarification by centrifugation at 30,000 g, 4° C. for 120 minutes, the dialysate was applied in two aliquots to a Protein Pak SP colummn (1.0 cm×10 cm, Waters Division of Millipore Corp., Milford, Mass.) equilibrated in buffer A. The protein was eluted (1 ml/min) with a linear gradient in buffer A of 0 to 1M NaCl over 60 minutes. Fractions were assayed for hGH activity or for hGH protein by Western blot. Fractions containing hGH were pooled and frozen at −80° C. Wildtype hGH and the C19A, C110A, and C290A mutants eluted as two peaks whereas the C124A mutant eluted as a single peak coincident with the first peak for the other hGH proteins. […] There was 8-10 times more hGH protein in peak 1 than in peak 2. A statistically significant amount (40-82%) of enzyme activity of proteins purified on the SP column was lost when stored either at 4° C. or at −80° C. Thawed aliquots of peak 1 were incubated for 2 hours at 4° C. with 2 ml of pHMB agarose (0.8 μmole/ml agarose) (Sigma Chemical, St. Louis, Mo.) equilibrated in 50 mM sodium acetate pH 5.8, 20 mM OBG, 500 mM NaCl (buffer B). The matrix was poured into a column (0.75 cm×4.5 cm) and washed with buffer B. hGH protein was eluted with buffer B containing additionally 10 mM dithiothreitol and 50 mM β-mercaptoethanol. EDTA (1 mM final) was added to each fraction to inhibit remaining proteases. Fractions containing hGH were pooled and stored at −80° C.
(§2) Km and Vmax activities were measured using variable 4-NH2-10-CH3PteGlu2 substrate concentrations. Specific activities were measured using 200 μM 4-NH2-10-CH3PteGlu2 for 5 minutes.

[4] = molecular target: T2, human gamma glutamyl hydrolase (hGH) (Homo sapiens, UniProt Q92820, C134A); assay: as above; format: biochemical; details: assayed with either 4-NH2-10-CH3PteGlu2 or the better substrate 4-NH2-10-CH3PteGlu
T2 construct: A cDNA encoding the 294 amino acid mature form of hGH protein with an N-terminal methionine preceding the first arginine residue; added N-terminal methionine (start codon) (N); made in house; host or cells: E. coli BL21(DE3)pLysS, pET-24a (pET-hGH)
T2 sequence (Q92820 with tags, fused parts or gaps C134A): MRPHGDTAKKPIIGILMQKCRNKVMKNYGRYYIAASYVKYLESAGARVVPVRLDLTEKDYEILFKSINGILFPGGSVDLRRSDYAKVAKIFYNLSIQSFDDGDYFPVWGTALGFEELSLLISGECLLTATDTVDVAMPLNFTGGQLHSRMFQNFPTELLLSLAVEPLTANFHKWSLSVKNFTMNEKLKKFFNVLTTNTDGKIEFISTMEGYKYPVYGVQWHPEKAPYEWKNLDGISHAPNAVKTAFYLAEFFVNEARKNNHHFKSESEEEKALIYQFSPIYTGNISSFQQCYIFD
Method: as §1, §2

[5] = test system: human gamma glutamyl hydrolase (hGH); assay: Activity of baculovirus-expressed hGH mutants on methotrexate polyglutamates; format: biochemical; details: mutants expressed in the baculovirus system
Source text: This model for the active site of hGH has been tested by preparing the Cys110Ala, His220Ala, Glu222Ala, His171Ala, and His171Asn mutants of hGH. The mutants were expressed in the baculovirus system used for active hGH to facilitate the rapid expression and purification of the proteins. The mutant proteins were characterized for activity on methotrexate polyglutamates. […] The role of His171 in hGH has been examined by preparing the mutant His171Ala and the more conservative mutation His171Asn.

Molecule: O=C(O)CI [iodoacetate]
- Reduction of hGH activity by iodoacetate [1]: 70-94%

B1: C110A: hGH variant with cysteine 110 replaced by alanine (protein)
chain: T1 sequence (Q92820 25-318 C134A) with K242N, T243P, N258K
- hGH activity in SP cation exchange column fractions [2]: no fractions contained hGH activity
- Specific activity (nmol 4-NH2-10-CH3PteGlu2 hydrolyzed/min/mg protein) [3]: no activity
- hGH activity (in words) [3]: no activity
- Activity relative to wildtype enzyme [4]: less than 0.01 % of wildtype enzyme
- Activity on methotrexate polyglutamates [5]: inactive

B2: Wildtype: mature human gamma glutamyl hydrolase (SEQ ID NO:1) with N-terminal methionine, expressed in E. coli (protein, listed as Homo sapiens)
chain: T1 sequence (Q92820 25-318 C134A) with A110C, K242N, T243P, N258K
modifications: N-terminal methionine
- Specific activity (nmol 4-NH2-10-CH3PteGlu2 hydrolyzed/min/mg protein) [3]: 1913 ± 32 nmol 4-NH2-10-CH3PteGlu2 hydrolyzed/min/mg protein
- hGH activity (in words) [3]: had activity
- Km [3]: 55.2 ± 8.4 µM
- Vmax (nmol 4-NH2-10-CH3PteGlu2 hydrolyzed/min/μg protein) [3]: 2.7 ± 0.9 nmol 4-NH2-10-CH3PteGlu2 hydro

B3: C19A: hGH variant with cysteine 19 replaced by alanine (protein)
chain: T1 sequence (Q92820 25-318 C134A) with C19A, A110C, K242N, T243P, N258K
- Specific activity (nmol 4-NH2-10-CH3PteGlu2 hydrolyzed/min/mg protein) [3]: 1000 ± 72^a nmol 4-NH2-10-CH3PteGlu2 hydrolyzed/min/mg protein
- hGH activity (in words) [3]: had activity
- Km [3]: 18.1 ± 0.4 µM
- Vmax (nmol 4-NH2-10-CH3PteGlu2 hydrolyzed/min/μg protein) [3]: 1.1 ± 0.3 nmol 4-NH2-10-CH3PteGlu2 hydro

B4: C124A: hGH variant with cysteine 124 replaced by alanine (protein)
chain: T1 sequence (Q92820 25-318 C134A) with A110C, C124A, K242N, T243P, N258K
- Specific activity (nmol 4-NH2-10-CH3PteGlu2 hydrolyzed/min/mg protein) [3]: 725 ± 79^a nmol 4-NH2-10-CH3PteGlu2 hydrolyzed/min/mg protein
- hGH activity (in words) [3]: had activity
- Km [3]: 28.5 ± 3.7 µM
- Vmax (nmol 4-NH2-10-CH3PteGlu2 hydrolyzed/min/μg protein) [3]: 1.0 ± 0.1 nmol 4-NH2-10-CH3PteGlu2 hydro

B5: C290A: hGH variant with cysteine 290 replaced by alanine (protein)
chain: T1 sequence (Q92820 25-318 C134A) with A110C, K242N, T243P, N258K, C290A
- Specific activity (nmol 4-NH2-10-CH3PteGlu2 hydrolyzed/min/mg protein) [3]: 1406 ± 463 nmol 4-NH2-10-CH3PteGlu2 hydrolyzed/min/mg protein
- hGH activity (in words) [3]: had activity
- Km [3]: 19.5 ± 8.6 µM
- Vmax (nmol 4-NH2-10-CH3PteGlu2 hydrolyzed/min/μg protein) [3]: 1.9 ± 0.4 nmol 4-NH2-10-CH3PteGlu2 hydro

B6: H220A: hGH mutant with His 220 changed to Ala, expressed in the baculovirus system (protein)
chain: T1 sequence (Q92820 25-318 C134A) with A110C, H220A, K242N, T243P, N258K
- Activity on methotrexate polyglutamates [5]: inactive

B7: Glu222Ala: hGH mutant with Glu 222 changed to Ala, expressed in the baculovirus system (protein)
chain: T1 sequence (Q92820 25-318 C134A) with A110C, E222A, K242N, T243P, N258K
- Activity on methotrexate polyglutamates [5]: greatly reduced activity

B8: His171Asn: hGH mutant with His 171 changed to Asn, expressed in the baculovirus system (protein)
chain: T1 sequence (Q92820 25-318 C134A) with A110C, H171N, K242N, T243P, N258K
- Activity on methotrexate tetraglutamate [5]: inactive
